In publication PMC10724065, “Evolution of a plant growth-regulatory protein interaction specificity” (Nature Plants, 2023):

B1: Arabidopsis thaliana AtSLY1 (yeast bait fusion) [Arabidopsis thaliana] / A. thaliana RGA (yeast prey fusion) [Arabidopsis thaliana] (parent complex)
chain 1: MKRSTTDSDLAGDAHNETNKKMKSTEEEEIGFSNLDENLVYEVLKHVDAKTLAMSSCVSKIWHKTAQDERLWELICTRHWTNIGCGQNQLRSVVLALGGFRRLHSLYLWPLSKPNPRARFGKDELKLTLSLLSIRYYEKMSFTKRPLPESK
chain 2: MKRDHHQFQGRLSNHGTSSSSSSISKDKMMMVKKEEDGGGNMDDELLAVLGYKVRSSEMAEVALKLEQLETMMSNVQEDGLSHLATDTVHYNPSELYSWLDNMLSELNPPPLPASSNGLDPVLPSPEICGFPASDYDLKVIPGNAIYQFPAIDSSSSSNNQNKRLKSCSSPDSMVTSTSTGTQIGGVIGTTVTTTTTTTTAAGESTRSVILVDSQENGVRLVHALMACAEAIQQNNLTLAEALVKQIGCLAVSQAGAMRKVATYFAEALARRIYRLSPPQNQIDHCLSDTLQMHFYETCPYLKFAHFTANQAILEAFEGKKRVHVIDFSMNQGLQWPALMQALALREGGPPTFRLTGIGPPAPDNSDHLHEVGCKLAQLAEAIHVEFEYRGFVANSLADLDASMLELRPSDTEAVAVNSVFELHKLLGRPGGIEKVLGVVKQIKPVIFTVVEQESNHNGPVFLDRFTESLHYYSTLFDSLEGVPNSQDKVMSEVYLGKQICNLVACEGPDRVERHETLSQWGNRFGSSGLAPAHLGSNAFKQASMLLSVFNSGQGYRVEESNGCLMLGWHTRPLITTSAWKLSTAAY
B2: Arabidopsis thaliana AtSLY1 (yeast bait fusion) [Arabidopsis thaliana] / A. thaliana GAI (yeast prey fusion) [Arabidopsis thaliana] (parent complex)
chain 1: B1 chain 1
chain 2: MKRDHHHHHHQDKKTMMMNEEDDGNGMDELLAVLGYKVRSSEMADVAQKLEQLEVMMSNVQEDDLSQLATETVHYNPAELYTWLDSMLTDLNPPSSNAEYDLKAIPGDAILNQFAIDSASSSNQGGGGDTYTTNKRLKCSNGVVETTTATAESTRHVVLVDSQENGVRLVHALLACAEAVQKENLTVAEALVKQIGFLAVSQIGAMRKVATYFAEALARRIYRLSPSQSPIDHSLSDTLQMHFYETCPYLKFAHFTANQAILEAFQGKKRVHVIDFSMSQGLQWPALMQALALRPGGPPVFRLTGIGPPAPDNFDYLHEVGCKLAHLAEAIHVEFEYRGFVANTLADLDASMLELRPSEIESVAVNSVFELHKLLGRPGAIDKVLGVVNQIKPEIFTVVEQESNHNSPIFLDRFTESLHYYSTLFDSLEGVPSGQDKVMSEVYLGKQICNVVACDGPDRVERHETLSQWRNRFGSAGFAAAHIGSNAFKQASMLLALFNGGEGYRVEESDGCLMLGWHTRPLIATSAWKLSTN

Variants of: B1
Assay: yeast 2-hybrid; read off a plot

Going from chain 1 MKRSTTDSDLAGDAHNETNKKMKSTEEEEIGFSNLDENLVYEVLKHVDAKTLAMSSCVSKIWHKTAQDERLWELICTRHWTNIGCGQNQLRSVVLALGGFRRLYSLYLWPLSKPNPRARFGKDELKLTLSLLSIRYYEKMSFTKRPLPESK [chain 1 H104Y] to chain 1 MKRSTTDSDLAGDAHNETNKKMKSTEEEEIGFSNLDENLVYEVLKHVDAKTLAMSSCVSKIWHKTAQDERLWELICTRHWTNIGCGQNQLRSVVLALGGFRRLHSLYLWPLSKPNPRARFGKDELTLTLSLLSIRYYEKMSFTKRPLPESK [chain 1 K126T], the response falls from ~55 β-galactosidase units to ~0.6 β-galactosidase units.

First: chain 1 MKRSTTDSDLAGDAHNETNKKMKSTEEEEIGFSNLDENLVYEVLKHVDAKTLAMSSCVSKIWHKTAQDERLWELICTRHWTNIGCGQNQLRSVVLALGGFRRLHSLYLWPLSKPNPRARFGKDELNLTLSLLSIRYYEKMSFTKRPLPESK [chain 1 K126N]
Second: chain 1 E138K
The response of the first is higher: ~3.9 β-galactosidase units for the first, ~3.7 β-galactosidase units for the second.

First: chain 1 MKRSTTDSDLAGDAHNETNKKMKSTEEEEIGFSNLDENLVYEVLKHVDAKTLAMSSCVSKIWHKTAQDERLWELICTRHWTNIGCGQNQLRSVVLALGGFRRLHSLYLWPLSKLNPRARFGKDELKLTLSLLSIRYYEKMSFTKRPLPESK [chain 1 P114L]
Second: chain 1 MKRSTTDSDLAGDAHNETNKKMKSTEEEEIGFSNLDENLVYEVLKHVDAKTLAMSSCVSKIWHKTAQDERLWELICTRHWTNIGCGQNQLRSVVLALGGFRRLHSLYLWPLSKSNPRARFGKDELKLTLSLLSIRYYEKMSFTKRPLPESK [chain 1 P114S]
The response of the first is lower: ~1.5 β-galactosidase units for the first, ~3.6 β-galactosidase units for the second.

Going from chain 1 MKRSTTDSDLAGDAHNETNKKMKSTEEEEIGFSNLDENLVYEVLKHVDAKTLAMSSCVSKIWHKTAQDERLWELICTRHWTNIGCGQNQLRSVVLALGGFRRLHSLYLWPLSKPNPRARFGKDELKLALSLLSIRYYEKMSFTKRPLPESK [chain 1 T128A] to chain 1 MKRSTTDSDLAGDAHNETNKKMKSTEEEEIGFSNLDENLVYEVLKHVDAKTLAMSSCVSKIWHKTAQDERLWELICTRHWTNIGCGQNQLRSVVLALGGFRRLHSLYLWPLSKPNPRARFGKDELKLSLSLLSIRYYEKMSFTKRPLPESK [chain 1 T128S], the response falls from ~24 β-galactosidase units to ~1.3 β-galactosidase units.

Variants of: B2
Assay: pull-down (IP: His, immunoblot); parent: 1

Going from chain 1 MKRSTTDSDLAGDAHNETNKKMKSTEEEEIGFSNLDENLVYEVLKHVDAKTLAMSSCVSKIWHKTAQDERLWELICTRHWTNIGCGQNQLRSVVLALGGFRRLYSLYLWPLSKPNPRARFGKDELKLTLSLLSIRYYEKMSFTKRPLPESK [chain 1 H104Y] to chain 1 MKRSTTDSDLAGDAHNETNKKMKSTEEEEIGFSNLDENLVYEVLKHVDAKTLAMSSCVSKIWHKTAQDERLWELICTRHWTNIGCGQNQLRSVVLALGGFRRLHSLYLWPLSKPNPRARFGKDELKLALSLLSIRYYEKMSFTKRPLPESK [chain 1 T128A], the ratio to parent falls from 3.05 to 2.36.

Work on chain 1 MKRSTTDSDLAGDAHNETNKKMKSTEEEEIGFSNLDENLVYEVLKHVDAKTLAMSSCVSKIWHKTAQDERLWELICTRHWTNIDCGQNQLRSVVLALGGFRRLHSLYLWPLSKPNPRARFGKDELKLTLSLLSIRYYEKMSFTKRPLPESK [chain 1 G84D] yielded a ratio to parent of 1.41.

Variants of: B2
Assay: yeast 2-hybrid; parent: 0.3; read off a plot

chain 1 MKRSTTDSDLAGDAHNETNKKMKSTEEEEIGFSNLDENLVYEVLKHVDAKTLAMSSCVSKIWHKTAQDERLWELICTRHWTNIGCGQNQLRSVVLALGGFRRLYSLYLWPLSKPNPRARFGKDELKLTLSLLSIRYYEKMSFTKRPLPESK [chain 1 H104Y] was tested, and the response was ~110 β-galactosidase units.

Variants of: B2
Assay: yeast 2-hybrid; parent: 0.3; read off a plot
Remark: another data set of the same source

First: chain 1 MKRSTTDSDLAGDAHNETNKKMKSTEEEEIGFSNLDENLVYEVLKHVDAKTLAMSSCVSKIWHKTAQDERLWELICTRHWTNIGCGQNQLRSVVLALGGFRRLYSLYLWPLSKPNPRARFGKDELKLTLSLLSIRYYEKMSFTKRPLPESK [chain 1 H104Y]
Second: chain 1 MKRSTTDSDLAGDAHNETNKKMKSTEEEEIGFSNLDENLVYEVLKHVDAKTLAMSSCVSKIWHKTAQDERLWELICTRHWTNIGCGQNQLRSVVLALGGFRRLHSLYLWPLSKPNPRARFGKDELKLALSLLSIRYYEKMSFTKRPLPESK [chain 1 T128A]
The response of the first is higher: ~120 β-galactosidase units for the first, ~86 β-galactosidase units for the second.

Variants of: B2
Assay: yeast 2-hybrid; parent: 0.35; read off a plot

Going from chain 1 MKRSTTDSDLAGDAHNETNKKMKSTEEEEIGFSNLDENLVYEVLKHVDAKTLAMSSCVSKIWHKTAQDERLWELICTRHWTNIGCGQNQLRSVVLALGGFRRLYSLYLWPLSKPNPRARFGKDELKLTLSLLSIRYYEKMSFTKRPLPESK [chain 1 H104Y] to chain 1 MKRSTTDSDLAGDAHNETNKKMKSTEEEEIGFSNLDENLVYEVLKHVDAKTLAMSSCVSKIWHKTAQDERLWELICTRHWTNIGCGQNQLRSVVLALGGFRRLHSLYLWPLSKPNPRARFGKDELKLALSLLSIRYYEKMSFTKRPLPESK [chain 1 T128A], the response falls from ~99 β-galactosidase units to ~77 β-galactosidase units.

Variants of: B2
Assay: pull-down (IP: His, immunoblot); without GST-GID1C, without GA3 (GAI in A Form); parent: 1

First: chain 1 MKRSTTDSDLAGDAHNETNKKMKSTEEEEIGFSNLDENLVYEVLKHVDAKTLAMSSCVSKIWHKTAQDERLWELICTRHWTNIGCGQNQLRSVVLALGGFRRLYSLYLWPLSKPNPRARFGKDELKLTLSLLSIRYYEKMSFTKRPLPESK [chain 1 H104Y]
Second: chain 1 MKRSTTDSDLAGDAHNETNKKMKSTEEEEIGFSNLDENLVYEVLKHVDAKTLAMSSCVSKIWHKTAQDERLWELICTRHWTNIGCGQNQLRSVVLALGGFRRLHSLYLWPLSKPNPRARFGKDELKLALSLLSIRYYEKMSFTKRPLPESK [chain 1 T128A]
The ratio to parent of the first is higher: 5.65 for the first, 2.27 for the second.

Variants of: B2
Assay: pull-down (IP: His, immunoblot); with GST-GID1C, with GA3 (GAI in A + A' Forms); parent: 2.41

First: chain 1 MKRSTTDSDLAGDAHNETNKKMKSTEEEEIGFSNLDENLVYEVLKHVDAKTLAMSSCVSKIWHKTAQDERLWELICTRHWTNIGCGQNQLRSVVLALGGFRRLYSLYLWPLSKPNPRARFGKDELKLTLSLLSIRYYEKMSFTKRPLPESK [chain 1 H104Y]
Second: chain 1 MKRSTTDSDLAGDAHNETNKKMKSTEEEEIGFSNLDENLVYEVLKHVDAKTLAMSSCVSKIWHKTAQDERLWELICTRHWTNIGCGQNQLRSVVLALGGFRRLHSLYLWPLSKPNPRARFGKDELKLALSLLSIRYYEKMSFTKRPLPESK [chain 1 T128A]
The response of the first is higher: 11.8 relative anti-MBP band intensity (SLY1 without GST-GID1C and GA3 = 1.00) for the first, 9.37 relative anti-MBP band intensity (SLY1 without GST-GID1C and GA3 = 1.00) for the second.
